The supplement of paper PMC6757056
± gives the standard deviation of the averaged measurements.

B1: library; a variant is named by its letters at N, in order (parent)
chain: GCUGUCACCGAGAAACUGUGAAGUAUAUCUUAAACCUGGGCACUUAAAAGAUAUAUGGAGUUAGUAGUGCAACCUGCUCGGUCUGAUGAGUCCNNNNNNGGACGAAACAGC

Tests used:
cyclic di-GMP [1] = variants of: B1; assay: FACS-Seq fitted mean relative fluorescence mCherry/BFP without ligand (log10 relative fluorescence); HEK293T; ligand: cyclic di-GMP (c-di-GMP-II aptamer); higher = higher reporter protein expression; details: ligand present: no
Procedure: (§1)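 Hammerhead (sTRSV) ribozyme switch libraries with a ligand aptamer grafted on stem I and a randomized N4-6 loop II, cloned into the 3' UTR of mCherry and transiently transfected into HEK293T cells; RNA-Seq 72 h post transfection with ligand added 1 h before transfection; RNA read count / plasmid DNA read count normalized to the non-cleaving sTRSVctl (x100), log10; sequences with >100 DNA reads. FACS-Seq: lentiviral library sorted into 6 bins after 48 h ligand, log-normal fit mean of mCherry/BFP scaled to controls. Printed sequences are partial switch sequences.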

cyclic di-GMP [2] = variants of: B1; assay: normalized RNA/DNA level without ligand (relative to sTRSVctl = 100) (log10 (% of sTRSVctl)); HEK293T; ligand: cyclic di-GMP (c-di-GMP-II aptamer); higher = less ribozyme self-cleavage, higher mRNA level; details: reporter: mCherry (pCS4076), ligand present: no
Procedure: as §1

cyclic di-GMP [3] = variants of: B1; assay: FACS-Seq fitted mean relative fluorescence mCherry/BFP with ligand (log10 relative fluorescence); HEK293T; ligand: cyclic di-GMP (c-di-GMP-II aptamer); ligand concentration (+) FACS-Seq: 1 mM; higher = higher reporter protein expression; details: ligand present: yes
Procedure: as §1

cyclic di-GMP [4] = variants of: B1; assay: normalized RNA/DNA level with ligand (relative to sTRSVctl = 100) (log10 (% of sTRSVctl)); HEK293T; ligand: cyclic di-GMP (c-di-GMP-II aptamer); ligand concentration (+) RNA-Seq: 1 mM; higher = less ribozyme self-cleavage, higher mRNA level; details: reporter: mCherry (pCS4076), ligand present: yes
Procedure: as §1

Row | Variant | FACS-Seq fitted mean (log10) (cyclic di-GMP [1]) | normalized RNA/DNA level without ligand (log10) (cyclic di-GMP [2]) | FACS-Seq fitted mean (log10) (cyclic di-GMP [3]) | normalized RNA/DNA level with ligand (log10) (cyclic di-GMP [4])
1 | CAAGAA | -0.432 ± 0.1 | 1.23 ± 0.12 | -0.059 ± 0.057 | 1.48 ± 0.13
2 | AAAUAA | -0.515 ± 0.032 | 1.45 ± 0.067 | -0.21 ± 0.07 | 1.68 ± 0.12
3 | AAAGCU | -0.569 ± 0.092 | 1.63 ± 0.063 | -0.245 ± 0.025 | 1.78 ± 0.099
4 | GAAUAA | -0.287 ± 0.05 | 1.44 ± 0.067 | -0.0182 ± 0.045 | 1.68 ± 0.15
5 | GAAUAG | -0.662 ± 0.05 | 1.64 ± 0.018 | -0.40149 ± 0.00037 | 1.78 ± 0.15
6 | GAACCC | 0.196 ± 0.15 | 1.82 ± 0.026 | 0.39 ± 0.019 | 1.91 ± 0.12
7 | GAACUA | -0.288 ± 0.19 | 1.6 ± 0.068 | 0.0146 ± 0.12 | 1.77 ± 0.091
8 | AAAGGU | -0.701 ± 0.017 | 1.54 ± 0.054 | -0.44 ± 0.065 | 1.71 ± 0.1
9 | AAAGGG | -0.506 ± 0.051 | 1.37 ± 0.078 | -0.2804 ± 0.00041 | 1.59 ± 0.077
10 | AAAGGA | -0.691 ± 0.009 | 1.31 ± 0.13 | -0.5317 ± 0.0025 | 1.47 ± 0.11
11 | UAACGC | -0.0408 ± 0.21 | 1.66 ± 0.04 | 0.122 ± 0.082 | 1.79 ± 0.17
12 | UAACGA | -0.0411 ± 0.064 | 1.59 ± 0.026 | 0.272 ± 0.15 | 1.76 ± 0.089
13 | UAACGG | -0.162 ± 0.15 | 1.6716 ± 2.5e-05 | 0.21 ± 0.0062 | 1.82 ± 0.1
14 | UAACGU | -0.388 ± 0.07 | 1.51 ± 0.095 | -0.125 ± 0.05 | 1.71 ± 0.12
15 | GAAGCG | -0.36 ± 0.013 | 1.841 ± 0.018 | -0.268 ± 0.16 | 1.87 ± 0.069
16 | GAAGCA | -0.476 ± 0.078 | 1.8 ± 0.082 | -0.329 ± 0.2 | 1.88 ± 0.15
17 | CAACCU | -0.206 ± 0.19 | 1.56 ± 0.069 | -0.0641 ± 0.21 | 1.74 ± 0.096

Row | Variant | FACS-Seq fitted mean (log10) (cyclic di-GMP [1]) | normalized RNA/DNA level without ligand (log10) (cyclic di-GMP [2]) | FACS-Seq fitted mean (log10) (cyclic di-GMP [3]) | normalized RNA/DNA level with ligand (log10) (cyclic di-GMP [4])
18 | CAAAAA | -0.703 ± 0.047 | 1.21 ± 0.087 | -0.444 ± 0.071 | 1.46 ± 0.079
19 | CAAAAU | -0.237 ± 0.17 | 1.45 ± 0.11 | 0.0784 ± 0.017 | 1.65 ± 0.085
20 | CAAAAC | -0.495 ± 0.03 | 1.58 ± 0.055 | -0.278 ± 0.08 | 1.77 ± 0.14
21 | CAACAU | -0.377 ± 0.0095 | 1.43 ± 0.089 | -0.0626 ± 0.039 | 1.64 ± 0.13
22 | CAACAA | -0.326 ± 0.062 | 1.37 ± 0.11 | 0.0147 ± 0.011 | 1.53 ± 0.1
23 | CAAUAA | -0.688 ± 0.028 | 1.25 ± 0.083 | -0.398 ± 0.011 | 1.52 ± 0.074
24 | AAAGUU | -0.298 ± 0.1 | 1.59 ± 0.068 | 0.0631 ± 0.068 | 1.77 ± 0.03
25 | AAAGUC | 0.135 ± 0.29 | 1.574 ± 0.0057 | 0.392 ± 0.048 | 1.75 ± 0.1
26 | UAAGUG | 0.0931 ± 0.039 | 1.61 ± 0.022 | 0.27 ± 0.01 | 1.78 ± 0.12
27 | UAAGUA | -0.292 ± 0.034 | 1.609 ± 0.0095 | -0.0651 ± 0.011 | 1.78 ± 0.086
28 | UAAGUU | 0.0182 ± 0.011 | 1.577 ± 0.0025 | 0.229 ± 0.08 | 1.77 ± 0.094
29 | UAAAUA | -0.362 ± 0.037 | 1.654 ± 0.0031 | -0.139 ± 0.088 | 1.78 ± 0.059
30 | UAAAUG | 0.102 ± 0.084 | 1.62 ± 0.0043 | 0.384 ± 0.037 | 1.83 ± 0.12
31 | UAAAUU | 0.0621 ± 0.17 | 1.631 ± 0.016 | 0.394 ± 0.011 | 1.77 ± 0.11
32 | GAAGAU | -0.28 ± 0.1 | 1.5 ± 0.088 | 0.0337 ± 0.016 | 1.65 ± 0.14
33 | GAAGAA | -0.423 ± 0.0092 | 1.38 ± 0.15 | -0.233 ± 0.045 | 1.59 ± 0.08
